What was measured:
M2pd = target: T1, M2pd (Homo sapiens, UniProt P56817); test: Hydrolysis of synthetic peptide substrates by M2pd, kinetics by HPLC; type: biochemical
T1 construct: Pro-memapsin 2 residues start at residue Ala-16; The two recombinant pro-memapsin 2s have different C-terminal lengths; Clone T1 ends at Thr-456; made in house
Text: A synthetic peptide derived from this site (SEVKM/DAEFR) (SEQ ID NO:4) was hydrolyzed by M2pd at the beta-secretase site (marked by /). A second peptide (SEVNL/DAEFR) (SEQ ID NO:5) derived from the APP beta-secretase site and containing the ‘Swedish mutation’ (Mullan, M. et al., Nature Genet. 2:340-342 (1992)), known to elevate the level of alpha-beta production in cells (Citron, M. et al., Nature […] (1992)), was hydrolyzed by M2pd with much higher catalytic efficiency. Both substrates were optimally cleaved at pH 4.0. A peptide derived from the processing site of presenilin 1 (SVNM/AEGD) (SEQ ID NO:6) was also cleaved by M2pd with less efficient kinetic parameters. […]
Incubation in 0.1 M sodium acetate, pH 4.0, for 16 h at 22° C. auto-catalytically converted pro-M2pd to M2pd. […] For kinetic studies, the identified HPLC (Beckman System Gold) product peaks were integrated for quantitation. The Km and kcat values for presenilin 1 and Swedish APP peptides (Table 1) were measured by steady-state kinetics. The individual Km and kcat values for APP peptide could not be measured accurately by standard methods, so its kcat/Km value was measured by competitive hydrolysis of mixed substrates against presenilin 1 peptide (Fersht, A. “Enzyme Structure and Mechanism”, 2nd Ed., W.H. Freeman and Company, New York. (1985)).

[1] = system: APP cleavage by M2 in HeLa cells; test: APP cleavage in HeLa cells co-transfected with APP and M2, pulse-chase and immunoprecipitation; type: cell-based, human; details: Bafilomycin A1 in the media

T1 sequence (P56817 14-454): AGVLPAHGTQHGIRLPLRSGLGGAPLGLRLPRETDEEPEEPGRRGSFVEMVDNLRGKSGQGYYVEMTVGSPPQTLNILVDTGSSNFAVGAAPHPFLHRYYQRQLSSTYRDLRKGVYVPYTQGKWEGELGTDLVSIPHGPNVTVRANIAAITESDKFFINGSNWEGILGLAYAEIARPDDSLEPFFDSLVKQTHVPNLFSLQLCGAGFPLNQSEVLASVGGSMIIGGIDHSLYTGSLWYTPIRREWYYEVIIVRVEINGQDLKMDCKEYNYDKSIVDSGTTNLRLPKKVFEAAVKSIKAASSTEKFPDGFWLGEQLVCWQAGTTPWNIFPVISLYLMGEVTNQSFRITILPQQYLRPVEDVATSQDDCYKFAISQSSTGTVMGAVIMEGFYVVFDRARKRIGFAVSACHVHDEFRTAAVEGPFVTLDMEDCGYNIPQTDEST

Row | cleavage by M2pd (M2pd) | Compound | production of APP fragments beta N- and beta C- [1]
1 | not cleaved | KGGVVIATVIVK | 
2 |  | CO/C1=C\C(C)=C\[C@@H](C)[C@@H](O)[C@@H](C)C/C(C)=C/C=C/[C@H](OC)[C@@H]([C@@H](C)[C@@H](O)[C@H](C)[C@@]2(O)C[C@@H](O)[C@H](C)[C@@H](C(C)C)O2)OC1=O [Bafilomycin A1] | abolished the production of both APP fragments

Source: patent US7829669B2, “Catalytically active recombinant memapsin and methods of use thereof” (Oklahoma Medical Research Foundation, priority 1999, dated 2010)
